Source: US12006519B2, “Polymerase mutants and use with 3′-OH unblocked reversible terminators” (Agilent Technologies, Inc., priority 2021, dated 2024)

Legend:
Type in all cases: biochemical
LTA-2 [1] = experiment: Template-independent incorporation of LTA-2, LTU-2, LTG-2, LTC-2 to priming strands
Procedure: The template-independent DNA synthesis reactions employed 7.5 U TdT (Promega) or 180 nM (3×over primer) Pfu26 (D141A/E143A/A486L/Y546H/K477W/L409Y) or Pfu48 (D141A/E143A/A486R/Y546H/K477W/L409Y). Varying concentrations of dATP were added to 2 μM (TdT) or 60 nM (Pfu) T7 FOR primer (6′Fam […]) (SEQ ID NO:6) in duplicate reactions containing 1×TdT buffer with CoCl2(Promega) or 1×ThermoPol buffer (NEB). Reactions were incubated for 30 min. at 37° C. (TdT) or 60° C. (Pfu), and then inactivated with heat (TdT; 10 min. at 70° C.) or EDTA (1 ul 500 uM EDTA). Reaction products were exposed to UV using a Stratalinker (15-watt bulbs, […], 10 min). Reactions were diluted in water (TdT, 1:333; Pfu, 1:10) and 1 μl (TdT) or 0.5 μl (Pfu) aliquots were brought up to 10 μl with HiDI/LIZ 120 Size Standard. Products were heated at 95° C. for 5 min., cooled on ice for 2 min., and then analyzed on an ABI 3500 capillary electrophoresis system ([…] capillary, filter set #5, assay=GE5 LIZ120).
In this example, primer extension was carried out with LTA-2 (FIG. 1F) as a Rp+Sp racemic mixture of α-thiotriphosphate, using the conditions described in Example 7.
In further experiments, single-base extension reactions (10 ul) were performed with an equimolar mixture (3 uM each) of two single-stranded oligommcleotides:
Both were labeled with Fam but distinguishable by their lengths using capillary electrophoresis. Primer extension reactions were performed using the following three Pfu mutants at a concentration of 18 nM polymerase: • Pfu10: Pfu polymerase with D141A/E143A/A486L/Y546H/K477W mutations (SEQ ID NO:2) • Pfu26: Pfu polymerase with D141A/E143A/A486L/Y546H/K477W/L409Y mutations (SEQ ID NO:4) • Pfu48: Pfu polymerase with D141A/E143A/A486R/Y546H/K477W/L409Y mutations (SEQ ID NO:5) The extension reactions also employed individual αS-modified LTs in Rp+Sp racemic mixture (namely, LTA-2, LTU-2, LTG-2, and LTC-2) at final concentrations of 5 uM. LTU-2, LTG-2, and LTC-2 are all C7 or C5-hydroxymethyl-a-tert-butyl-2-nitrobenzyl modified reversible terminators like LTA-2, with uracil, guanine, and cytosine in place of adenine. […] Reactions were incubated, stopped, UV-treated, and analyzed as described in Example 7.
(§1) Primer extensions were carried out in duplicate 25 ul reactions containing 7.5 U calf thymus TdT, 1×Promega TdT buffer (with CoCl2), varying concentrations of LTA-1 (100 uM, 50 uM, 10 uM, 5 uM, or 1 uM), and either 2 uM (FIG. 11A to 11C) or 80 nM (FIG. 11D to 11F) of a priming strand (Fam-labeled T7 F primer (6Fam […]), SEQ ID NO:8). Controls were performed without the addition of a polymerase. Primer extensions were also carried out in reactions containing the Pfu26 mutant polymerase, 60 nM of the priming strand, and various concentrations (10 μM or 5 μM or 1 μM) of LTA-1 or LTA-2.

LTA-1 = experiment: Template-independent incorporation of LTA-1 to a priming strand
Procedure: This example tested the addition of a 3′-OH unblocked reversible terminator (LTA-1, shown in FIG. 1E, or LTA-2, shown in FIG. 1F) to the 3′ end of a single-stranded priming strand. The extension reaction was performed with 2 uM or 80 nM of a priming strand and varying concentrations (100/50/10/5/1 μM) of the reversible terminator. The performance of the Pfu26 polymerase was compared to TdT polymerase.
as §1
Reactions were incubated at 37° C. for 30 min., and then heat-killed for 10 min. at 70° C. Reaction products were split in half, and one-half was treated with UV as described in Example 7. Reactions were then diluted 1:333 (2 uM primer) or 1:13 (80 nM primer) in water, and 0.5 ul portions were analyzed by capillary electrophoresis using the conditions provided in Example 7.

LTA-2 [2] = experiment: Multi-cycle template-independent addition of LTA-2 (TiEOS); conditions: 7-deaza-7-hydroxymethyl-α-tert-butyl-2-nitrobenzyl modified LTA, 3 or 6 cycles
Procedure: This example tested the multi-cycle addition of a 3′-OH unblocked reversible terminator (LTA-2, shown in FIG. 1F) to the 3′ end of a single-stranded priming strand using the Pfu26 mutant polymerase. Single-base extension assays were performed as described in Example 7 using Pfu26 with modified LTA-2 that has a-tert-butyl substituted 2-nitrobenyl terminating group attached to 7-deaza-C7hydroxymethyl group. The modified LTA-2 optionally contains the αS triphosphate modification and HPLC-purified to isolate the Sp isomer (FIGS. 13A and 13C). At each incorporation cycle (3 cycles-FIGS. 13A&13B; 6 cycles-FIG. 13C), 1 ul was removed and saved on ice for ABI 3500 analysis. At each cycle, the remaining reaction volume was purified using MyOne T1 […] beads as follows (for the 3-cycle experiment). 127.5 ul of beads were washed 2×in 1 ml wash solution and resuspended in the original volume with the wash solution. A biotinylated, antisense T7 (underlined) primer with spacer (5′-CCCTATAGTGAGTCGTATACGGAGCATA-biotin) was added at a final concentration of 180 nM. The beads and capture oligo were mixed at 300 rpm for 30 min. at room temperature, washed 2×in 500 ul wash solution, and resuspended in 150 ul of the same. […] After purification (cycles 2-6), 2 ul of fresh enzyme/LTA mix was added, and the primer extensions were performed and analyzed as described above.

B1: Pfu26: Pfu D141A/E143A/A486L/Y546H/K477W/L409Y, SEQ ID NO:4 (protein)
chain: MILDVDYITEEGKPVIRLFKKENGKFKIEHDRTFRPYIYALLRDDSKIEEVKKITGERHGKIVRIVDVEKVEKKFLGKPITVWKLYLEHPQDVPTIREKVREHPAVVDIFEYDIPFAKRYLIDKGLIPMEGEEELKILAFAIATLYHEGEEFGKGPIIMISYADENEAKVITWKNIDLPYVEVVSSEREMIKRFLRIIREKDPDIIVTYNGDSFDFPYLAKRAEKLGIKLTIGRDGSEPKMQRIGDMTAVEVKGRIHFDLYHVITRTINLPTYTLEAVYEAIFGKPKEKVYADEIAKAWESGENLERVAKYSMEDAKATYELGKEFLPMEIQLSRLVGQPLWDVSRSSTGNLVEWFLLRKAYERNEVAPNKPSEEEYQRRLRESYTGGFVKEPEKGLWENIVYLDFRAYYPSIIITHNVSPDTLNLEGCKNYDIAPQVGHKFCKDIPGFIPSLLGHLLEERQKIKTKMKETQDPIEWILLDYRQKLIKLLANSFYGYYGYAKARWYCKECAESVTAWGRKYIELVWKELEEKFGFKVLYIDTDGLHATIPGGESEEIKKKALEFVKYINSKLPGLLELEYEGFYKRGFFVTKKRYAVIDEEGKVITRGLEIVRRDWSEIAKETQARVLETILKHGDVEEAVRIVKEVIQKLANYEIPPEKLAIYEQITRPLHEYKAIGPHVAVAKKLAAKGVKIKPGMVIGYIVLRGDGPISNRAILAEEYDPKKHKYDAEYYIENQVLPAVLRILEGFGYRKEDLRYQKTRQVGLTSWLNIKKS
modifications: Mutant of Pyrococcus furiosus Polymerase
Template-independent incorporation of LTA-2, LTU-2, LTG-2 and LTC-2 (in words) (LTA-2 [1]; 18 nM polymerase, 5 uM terminators, CE2 and T7 oligonucleotides): superior to Calf thymus Terminal Transferase (TdT)
Template-independent incorporation of LTA-2 (in words) (LTA-2 [1]; single-stranded priming strand): efficient incorporation and termination
Template-independent incorporation of LTA-1 (in words) (LTA-1): incorporate LTA-1 less efficiently
Multi-cycle addition of LTA-2 (in words) (LTA-2 [2]): did not generate an individual product with 100% efficiency after 2-3 rounds of TiEOS
